Measured values from PMC6478609.

Biological target: TRPM8FA with the Ala805→Gly mutation (TRPM8_(FA_AG)) (collared flycatcher Ficedula albicollis) (UniProt U3JD03)
Test: cryo-EM structure

- stoichiometry N: 4
Substance: TRPM8FA with the Ala805→Gly mutation (TRPM8_(FA_AG)) (from UniProt U3JD03 1-1115) (natural protein)
